Values belong to the binder of their own block, whether it stands above or below them.
Experiments:
[1] = biological target: activated blood coagulation factor IX (FIXa) (UniProt P00740 47-461, limits assumed); assay: cell-based or functional assay
[2] = biological target: blood coagulation factor X (FX) (UniProt P00742 41-488, limits assumed); assay: cell-based or functional assay
Chain of blood coagulation factor X (FX) (P00742 41-488 limits assumed): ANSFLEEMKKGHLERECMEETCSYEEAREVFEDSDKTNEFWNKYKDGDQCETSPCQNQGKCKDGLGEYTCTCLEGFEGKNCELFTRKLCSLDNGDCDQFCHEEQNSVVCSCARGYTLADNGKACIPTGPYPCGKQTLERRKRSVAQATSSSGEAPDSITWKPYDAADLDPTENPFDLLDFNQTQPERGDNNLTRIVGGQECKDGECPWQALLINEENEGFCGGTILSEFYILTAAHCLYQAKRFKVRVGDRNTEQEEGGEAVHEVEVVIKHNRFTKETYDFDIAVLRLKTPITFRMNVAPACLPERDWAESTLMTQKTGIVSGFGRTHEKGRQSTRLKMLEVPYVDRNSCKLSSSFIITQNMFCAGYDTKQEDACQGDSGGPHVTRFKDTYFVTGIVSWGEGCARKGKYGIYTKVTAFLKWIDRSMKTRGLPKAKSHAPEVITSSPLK

Chain of activated blood coagulation factor IX (FIXa) (P00740 47-461 limits assumed): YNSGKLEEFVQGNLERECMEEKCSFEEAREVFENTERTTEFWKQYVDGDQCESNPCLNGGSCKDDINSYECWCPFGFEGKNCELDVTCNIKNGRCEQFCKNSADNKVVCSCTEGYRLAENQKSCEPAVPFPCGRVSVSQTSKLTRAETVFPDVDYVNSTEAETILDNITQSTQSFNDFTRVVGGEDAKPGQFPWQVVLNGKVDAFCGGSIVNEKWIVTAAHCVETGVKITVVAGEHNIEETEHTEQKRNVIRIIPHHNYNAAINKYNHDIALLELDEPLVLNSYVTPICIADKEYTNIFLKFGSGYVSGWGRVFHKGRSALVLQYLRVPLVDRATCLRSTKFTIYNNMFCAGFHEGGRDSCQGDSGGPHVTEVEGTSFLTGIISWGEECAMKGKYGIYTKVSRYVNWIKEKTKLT

biological activity relative to the Emicizumab standard solution (chromogenic assay: FXa produced in the presence of FIXa, FX and phospholipid) [1]: 18%
biological activity relative to the Emicizumab standard solution (chromogenic assay: FXa produced in the presence of FIXa, FX and phospholipid) [2]: 18%
B1: Q-CDR-Clipped Variants (variants of Emicizumab) (bispecific antibody, human IgG4 S228P, kappa)
heavy 1: QVQLVESGGGLVQPGGSLRLSCAASGFTFSYYDIQWVRQAPGKGLEWVSSISPSGQSTYYRREVKGRFTISRDNSKNTLYLQMNSLRAEDTAVYYCARRTGREYGGGWYFDYWGQGTLVTVSSASTKGPSVFPLAPCSRSTSESTAALGCLVKDYFPEPVTVSWNSGALTSGVHTFPAVLQSSGLYSLSSVVTVPSSSLGTQTYTCNVDHKPSNTKVDKRVESKYGPPCPPCPAPEFLGGPSVFLFPPKPKDTLMISRTPEVTCVVVDVSQEDPEVQFNWYVDGVEVHNAKTKPREEQYNSTYRVVSVLTVLHQDWLNGKEYKCKVSNKGLPSSIEKTISKAKGQPREPQVYTLPPSQKEMTKNQVSLTCLVKGFYPSDIAVEWESNGQPENNYKTTPPVLDSDGSFFLYSKLTVDKSRWQEGNVFSCSVMHEALHNRYTQKSLSLSP
heavy 2: QVQLVQSGSELKKPGASVKVSCKASGYTFTDNNMDWVRQAPGQGLEWMGDINTRSGGSIYNEEFQDRVIMTVDKSTDTAYMELSSLRSEDTATYHCARRKSYGYYLDEWGEGTLVTVSSASTKGPSVFPLAPCSRSTSESTAALGCLVKDYFPEPVTVSWNSGALTSGVHTFPAVLQSSGLYSLSSVVTVPSSSLGTQTYTCNVDHKPSNTKVDKRVESKYGPPCPPCPAPEFLGGPSVFLFPPKPKDTLMISRTPEVTCVVVDVSQEDPEVQFNWYVDGVEVHNAKTKPREEQYNSTYRVVSVLTVLHQDWLNGKEYKCKVSNKGLPSSIEKTISKAKGQPREPQVYTLPPSQEEMTKNQVSLTCLVKGFYPSDIAVEWESNGQPENNYKTTPPVLDSDGSFFLYSKLTVDKSRWQEGNVFSCSVMHEALHNHYTQESLSLSP
light: DIQMTQSPSSLSASVGDRVTITCKASRNIERQLAWYQQKPGQAPELLIYQASRKESGVPDRFSGSRYGTDFTLTISSLQPEDIATYYCQQYSDPPLTFGGGTKVEIKRTVAAPSVFIFPPSDEQLKSGTASVVCLLNNFYPREAKVQWKVDNALQSGNSQESVTEQDSKDSTYSLSSTLTLSKADYEKHKVYACEVTHQGLSSPVTKSFNRGEC
modifications: Q chain: R at the 61st position from the N terminus (Kabat 60), or YYR at the 59th to 61st positions (Kabat 58 to 60), deleted and the chain cleaved at the deletion site; the N-terminal and C-terminal fragments are joined via a disulfide bond

biological activity relative to the Emicizumab standard solution (chromogenic assay: FXa produced in the presence of FIXa, FX and phospholipid) [1]: 8%
biological activity relative to the Emicizumab standard solution (chromogenic assay: FXa produced in the presence of FIXa, FX and phospholipid) [2]: 8%
B2: Protected Disulfide Isoforms (isoforms of Emicizumab) (bispecific antibody, human IgG4 S228P, kappa)
heavy 1: B1 heavy 1
heavy 2: B1 heavy 2
light: B1 light
